doi:10.1101/2022.07.04.498777 (bioRxiv, 2022)

Biological target: the molecule itself
Test: dynamic light scattering

B1: Peptide G37 (peptide)
peptide: SLLTEVETPIRNEWGCRCNDSSD
  binding result: binds
